{
  "source": "patent US20240336900A1",
  "about": "“METHODS AND COMPOSITIONS RELATED TO MODIFIED METHYLTRANSFERASES AND ENGINEERED BIOSENSORS” (BOARD OF REGENTS, THE UNIVERSITY OF TEXAS SYSTEM, priority 2023, published 2024)",
  "key": {"[1]": {"test": "Differential scanning fluorimetry", "format": "physicochemical", "experimental": "Purified Nb4OMT variants in the concentration of 5 μM were prepared in 96-well low-profile PCR plates (ABgene, Thermo Scientific). 10×SYPRO® Orange (Molecular Probes) was added into each well and mixed prior to measurement in an RT-PCR machine (LightCycler 480, Roche). The protein melting experiments were carried out with a continuous temperature acquisition mode using 10 acquisitions per 1° C. in each cycle from 20° C. to 95° C. The melting curves of the Nb4OMT variants were monophasic and Tm values were derived using Boltzmann equation."}, "[2]": {"test": "Steady state kinetics of purified Nb4OMT variants", "format": "biochemical", "experimental": "Reactions for kinetics measurements were performed in triplicate for all enzyme variants. For each variant 1.5 ml reactions containing 3.5 nM of enzyme, 500 μM SAM, 2 mM CaCl2), and 15.625, 31.25, 62.5, 125, 250, or 500 μM norbelladine in PBS pH 7.5 were incubated at 37° C. for 4 hours. Every hour a 200 μl aliquot of each reaction was quenched by pipetting it into a 1.5 ml microcentrifuge tube with 20 μl of 2M HCl. The concentration of 4′-O-Methylnorbelladine was then determined using HPLC as described.\nKinetic data were fit in KinTek Explorer simulation and data fitting software v11 (Roy, 2018). The following minimal model was used as an input. Each line represents a step in the model and the forward reaction goes from left to right while the reverse reaction goes from right to left as written. • (1) E+S=ES • (2) ES=EP • (3) EP=E+P • (4) S=P2\n3.5 nM enzyme and 15.625, 31.25, 62.5, 125, 250, and 500 M substrate. The output observable was defined as EP+P. Substrate oxidation was modeled in step (4) as irreversible with a best fit value from globally fitting data from all variants to derive k4=0.00547 min^−1.To get kout/Km and kcat: k−1, k−2, and k−3 were locked at 0 min-1 (irreversible reactions). k+3 was locked at 10,000 min-1 as to not limit the rate of turnover. k+1 and k+2 were used as variable parameters in the fitting. Under these conditions, k+2=kcat and k+1=kcat/Km. For estimates of 95% confidence intervals on kinetic parameters, confidence contour analysis was used with the FitSpace function in KinTek Explorer (Bhattacharya, 2015). Confidence contour plots are calculated by systematically varying a single rate constant and holding it fixed at a particular value while refitting the data, allowing other rate constants to float. The goodness of fit was scored by the resulting χ^2 value. The confidence interval is defined based on a threshold in χ^2 calculated from the F-distribution based on the number of data points and number of variable parameters to give the 95% confidence limits. For the data given in FIGS. 20A-20C, this threshold was 0.85 to estimate the upper and lower limits for each parameter. […] We then fit the data for these two variants to the model shown below, accounting for substrate inhibition.\nAs before, k+1 was allowed to float in the fitting to give kcat/Km, and k−1 was locked at 0 min^−1, k+2 was allowed to float in the fitting to give kcat, and k−2 was locked at 0 min^−1. k+3 was locked at 10,000 min^−1, and k−3 was locked at 0 min^−1. k+4 and k+6 were locked at 100 μM^−1 min^−1, and k−4 and k−6 were allowed to float in the fitting as linked parameters. k+5 was linked to k+1 and k−5 was locked at 0 min^−1. k−7 was locked at 0 min^−1, and k+7 was locked at 0.00547 min^−1."}, "[3]": {"test": "HPLC and LC/MS analysis of in vivo Nb4OMT reaction supernatant", "format": "cell-based, Escherichia coli", "settings": "relative to wild-type Nb4OMT", "experimental": "Assay samples were filtered using a 0.2-um PTFE syringe filter prior to running the HPLC. The measurement of Norbelladine and 4-O'Methyl-norbelladine was performed using a Vanquish HPLC system (Thermo Fisher Scientific) equipped with a BDS Hypersil TM C18 (3.0×150 mm 2, 3 um) (Thermo Fisher Scientific) with detection wavelength 277 nm. The mobile phase consisted of 0.1% formic acid in water or 0.1% formic acid in acetonitrile over the course of 28 minutes under the following conditions: 10% organic (vol/vol) for 2 minutes, 10 to 30% organic (vol/vol) for 13 minutes, 30 to 90% organic (vol/vol) for 0.1 minutes, 90% organic (vol/vol) for 4.9 minutes, 90 to 10% organic (vol/vol) for 1 minute, and 10% organic (vol/vol) for 7 minutes. The flow rate was fixed at 0.8 ml min-1. A standard curve for norbelladine was prepared using synthesized norbelladine (see Chemical synthesis and NMR analysis of norbelladine). A standard curve for 4-O'Methyl-norbelladine was prepared using commercially available 4-O'Methyl-norbelladine.\nCells containing the plasmid expressing each Nb4OMT variant with the P150-RBS (RiboJ) promoter were transformed and plated onto an LB agar plate containing appropriate antibiotics. […]\nSamples were analyzed using an Agilent 6530 Q-TOF LC-MS with a dual Agilent Jet Stream electrospray ionization source in positive mode. […]"}, "[4]": {"test": "Biosensor-linked O-methyltransferase activity assay", "format": "cell-based, Escherichia coli", "settings": "single mutational designs; 25, 30, 37 °C; 100 uM, 1 mM norbelladine", "experimental": "Nb4OMT was expressed with the P150-RBS (riboJ) promoter-RBS on the pReg-RamR plasmid backbone (no regulator present). Cells were co-transformed with both the 40MT plasmid and the 4NB reporter plasmid and plated on an LB agar plate containing appropriate antibiotics. Three individual colonies from each transformation were picked into LB and grown overnight. Resulting cultures were diluted 50-fold into 1 ml LB medium containing the indicated concentration of norbelladine in a 96-deep-well plate and were grown at the indicated temperature for 24 h. Subsequently, the fluorescence of cultures was measured in the same manner as previously described in Dose-response measurement above."}},
  "data": [
    {"molecule": "A53M mutant: Nb4OMT variant with mutation A53M (protein, Description of sequence: Improved enzyme variant A53M) MGASIDDYSLVHKNILHSEDLLKYILETSAYPREHEQLKGLREVTEKHEWSSMLVPADEGLFLSMLLKLMNAKRTIEIGVYTGYSLLTTALALPEDGKITAIDVNKSYYEIGLPFIQKAGVEHKINFIESEALPVLDQMLEEMKEEDLYDYAFVDADKSNYANYHERLVKLVRIGGAILYDNTLWYGSVAYPEYPGLHPEEEVARLSFRNLNTFLAADPRVEISQVSIGDGVTICRRLY", "values": [
      {"measurement": "increase in Tm relative to the wild-type enzyme", "setting": "[1]", "result": 1.7, "unit": "°C"},
      {"measurement": "Tm", "setting": "[1]; 5 μM protein, SYPRO Orange", "result": 54.5, "unit": "°C"},
      {"measurement": "increase in keut relative to the wild-type enzyme", "setting": "[2]", "result": "> 2.1", "unit": "fold"},
      {"measurement": "increase of kcal/Km relative to the wild-type enzyme", "setting": "[2]", "result": "about 2 fold"},
      {"measurement": "kcat", "setting": "[2]; 3.5 nM enzyme, 500 μM SAM, 37° C., PBS pH 7.5", "result": ">3.17", "unit": "s⁻¹"},
      {"measurement": "Km", "setting": "[2]; calculated by dividing kcat by kcat/Km", "result": "< 90", "unit": "µM"},
      {"measurement": "substrate inhibition", "setting": "[2]; steady state kinetic data, highest norbelladine concentration", "result": "affected by substrate inhibition"},
      {"measurement": "reduction of 3-O'Methyl-norbelladine off-product", "setting": "[3]", "result": "about 3 fold"},
      {"measurement": "fluorescent signal relative to the wild-type enzyme", "setting": "[4]", "result": "significantly above the wild-type enzyme"}
    ]}
  ]
}
